# Data taken from the supplement of paper PMC9112550, “Optimization of the antimicrobial peptide Bac7 by deep mutational scanning” (BMC Biology, 2022).
# System: Escherichia coli TOP10
# Assay: shrunken log2 fold change of peptide-encoding DNA abundance (4.5 h post-induction vs induction); higher = less antimicrobial activity (less host growth inhibition)
# Settings: time post-induction: 4.5 h; library: site-saturation at positions 5, 18, 19, 20
# 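Note: peptides expressed intracellularly from a pBAD plasmid library in pooled LB shake-flask culture, induced with 0.3% L-arabinose, DNA abundance read by NGS, three biological replicates, DESeq2 with apeglm shrinkage.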
row,Sequence,shrunken log2 fold change
1,RRIRVRPPRLPRPRPRPNVHPRP,-0.546
2,RRIRQRPPRLPRPRPRPKATPRP,0.18
3,RRIRLRPPRLPRPRPRPKTDPRP,-0.233
4,RRIRHRPPRLPRPRPRPIHAPRP,-0.173
5,RRIRIRPPRLPRPRPRPSWHPRP,-0.707
6,RRIRARPPRLPRPRPRPEVFPRP,0.401
7,RRIRIRPPRLPRPRPRPGKLPRP,-0.0215
8,RRIRPRPPRLPRPRPRPHSEPRP,-0.0259
9,RRIRRRPPRLPRPRPRPKEPPRP,0.293
10,RRIRARPPRLPRPRPRPACMPRP,0.313
11,RRIRCRPPRLPRPRPRPMGPPRP,0.128
12,RRIRLRPPRLPRPRPRPWPCPRP,0.209
13,RRIRMRPPRLPRPRPRPEYFPRP,-0.109
14,RRIRCRPPRLPRPRPRPEGFPRP,0.0977
15,RRIRSRPPRLPRPRPRPGCSPRP,-0.115
16,RRIRVRPPRLPRPRPRPKMPPRP,-0.0804
17,RRIRYRPPRLPRPRPRPRETPRP,-0.0404
18,RRIRDRPPRLPRPRPRPTKHPRP,-0.0699
19,RRIRLRPPRLPRPRPRPNCHPRP,-0.156
20,RRIRCRPPRLPRPRPRPGRGPRP,1.18
21,RRIRPRPPRLPRPRPRPCRSPRP,-0.136
22,RRIRYRPPRLPRPRPRPAFSPRP,0.0115
23,RRIRERPPRLPRPRPRPNAGPRP,0.0608
24,RRIRNRPPRLPRPRPRPTHRPRP,0.597
25,RRIRIRPPRLPRPRPRPYPYPRP,0.0143

row,Sequence,shrunken log2 fold change
1,RRIRKRPPRLPRPRPRPCHPPRP,-0.336
2,RRIRWRPPRLPRPRPRPQRPPRP,-0.00892
3,RRIRFRPPRLPRPRPRPPRPPRP,0.905
4,RRIRARPPRLPRPRPRPVCNPRP,0.0721
5,RRIRPRPPRLPRPRPRPVEPPRP,0.352
6,RRIRIRPPRLPRPRPRPVVKPRP,-0.151
7,RRIRQRPPRLPRPRPRPLSIPRP,-0.325
8,RRIRDRPPRLPRPRPRPMHRPRP,-0.0439
9,RRIRLRPPRLPRPRPRPEVNPRP,0.0855
10,RRIRPRPPRLPRPRPRPQIIPRP,-0.447
11,RRIRQRPPRLPRPRPRPCCEPRP,-0.256
12,RRIRTRPPRLPRPRPRPHYYPRP,-0.744
13,RRIRMRPPRLPRPRPRPYVLPRP,-0.189
14,RRIRSRPPRLPRPRPRPYWAPRP,-0.177
15,RRIRGRPPRLPRPRPRPARLPRP,0.678
16,RRIRLRPPRLPRPRPRPEFFPRP,0.02
17,RRIRMRPPRLPRPRPRPKYAPRP,0.928
18,RRIRGRPPRLPRPRPRPWSEPRP,0.127
19,RRIRDRPPRLPRPRPRPCAYPRP,0.297
20,RRIRPRPPRLPRPRPRPAWAPRP,0.45
21,RRIRIRPPRLPRPRPRPHKAPRP,-0.0133
22,RRIRTRPPRLPRPRPRPMRPPRP,0.93
23,RRIRPRPPRLPRPRPRPCTSPRP,-0.0721
24,RRIRARPPRLPRPRPRPFEMPRP,0.135
25,RRIRDRPPRLPRPRPRPFGSPRP,0.0468

row,Sequence,shrunken log2 fold change
1,RRIRWRPPRLPRPRPRPYSLPRP,-0.201
2,RRIRTRPPRLPRPRPRPDNDPRP,0.0177
3,RRIRNRPPRLPRPRPRPWDTPRP,-0.0124
4,RRIRHRPPRLPRPRPRPNNVPRP,-0.68
5,RRIRERPPRLPRPRPRPISKPRP,-0.575
6,RRIRRRPPRLPRPRPRPMVTPRP,0.247
7,RRIRDRPPRLPRPRPRPTWYPRP,-0.238
8,RRIRWRPPRLPRPRPRPHWDPRP,-0.0409
9,RRIRARPPRLPRPRPRPRVWPRP,0.827
10,RRIRNRPPRLPRPRPRPHKIPRP,-0.657
11,RRIRGRPPRLPRPRPRPPHTPRP,0.985
12,RRIRFRPPRLPRPRPRPGHLPRP,-0.459
13,RRIRKRPPRLPRPRPRPIVVPRP,0.0157
14,RRIRFRPPRLPRPRPRPTNEPRP,-0.264
15,RRIRRRPPRLPRPRPRPDAFPRP,0.737
16,RRIRYRPPRLPRPRPRPKFRPRP,-0.102
17,RRIRDRPPRLPRPRPRPGWAPRP,0.718
18,RRIRQRPPRLPRPRPRPRPEPRP,0.646
19,RRIRVRPPRLPRPRPRPHWDPRP,-0.473
20,RRIRLRPPRLPRPRPRPKYVPRP,-0.126
21,RRIRARPPRLPRPRPRPQPVPRP,0.292
22,RRIRKRPPRLPRPRPRPRWFPRP,0.295
23,RRIRKRPPRLPRPRPRPTKTPRP,0.14
24,RRIRHRPPRLPRPRPRPKGYPRP,-0.0529
25,RRIRWRPPRLPRPRPRPDSYPRP,0.00709

row,Sequence,shrunken log2 fold change
1,RRIRTRPPRLPRPRPRPLDAPRP,-0.00457
2,RRIRWRPPRLPRPRPRPCDQPRP,-0.0328
3,RRIRGRPPRLPRPRPRPFQYPRP,0.105
4,RRIRCRPPRLPRPRPRPDDIPRP,0.0301
5,RRIRSRPPRLPRPRPRPQGGPRP,0.171
6,RRIRYRPPRLPRPRPRPGGDPRP,0.137
7,RRIRVRPPRLPRPRPRPHVTPRP,-0.304
8,RRIRVRPPRLPRPRPRPVRMPRP,-0.0731
9,RRIRVRPPRLPRPRPRPFCMPRP,-0.537
10,RRIRWRPPRLPRPRPRPVHEPRP,0.21
11,RRIRGRPPRLPRPRPRPCSAPRP,1.58
12,RRIRQRPPRLPRPRPRPFSIPRP,-0.104
13,RRIRHRPPRLPRPRPRPNFIPRP,-0.0658
14,RRIRWRPPRLPRPRPRPGCCPRP,0.659
15,RRIRSRPPRLPRPRPRPTLYPRP,0.0585
16,RRIRGRPPRLPRPRPRPHCFPRP,0.233
17,RRIRIRPPRLPRPRPRPFLIPRP,-0.606
18,RRIRYRPPRLPRPRPRPPPRPRP,1.5
19,RRIRFRPPRLPRPRPRPMHWPRP,0.325
20,RRIRARPPRLPRPRPRPTEYPRP,-0.103
21,RRIRGRPPRLPRPRPRPIEPPRP,0.491
22,RRIRLRPPRLPRPRPRPCTAPRP,-0.139
23,RRIRCRPPRLPRPRPRPPQKPRP,0.627
24,RRIRYRPPRLPRPRPRPGGAPRP,0.359
25,RRIRIRPPRLPRPRPRPNWFPRP,0.0822

row,Sequence,shrunken log2 fold change
1,RRIRRRPPRLPRPRPRPVMEPRP,0.305
2,RRIRNRPPRLPRPRPRPMSFPRP,-0.0524
3,RRIRFRPPRLPRPRPRPCCTPRP,-0.337
4,RRIRLRPPRLPRPRPRPRLGPRP,0.518
5,RRIRNRPPRLPRPRPRPIYTPRP,-0.288
6,RRIRSRPPRLPRPRPRPYYGPRP,-0.197
7,RRIRKRPPRLPRPRPRPRCRPRP,0.506
8,RRIRQRPPRLPRPRPRPTAHPRP,-0.0756
9,RRIRDRPPRLPRPRPRPCPHPRP,-0.228
10,RRIRFRPPRLPRPRPRPSHWPRP,0.0131
11,RRIRQRPPRLPRPRPRPPGVPRP,0.462
12,RRIRYRPPRLPRPRPRPDTHPRP,-0.22
13,RRIRDRPPRLPRPRPRPCKYPRP,0.0244
14,RRIRWRPPRLPRPRPRPTVSPRP,-0.156
15,RRIRQRPPRLPRPRPRPGYFPRP,0.0104
16,RRIRMRPPRLPRPRPRPNFDPRP,0.622
17,RRIRFRPPRLPRPRPRPGFWPRP,0.24
18,RRIRHRPPRLPRPRPRPQPNPRP,-0.168
19,RRIRHRPPRLPRPRPRPLCCPRP,-0.0675
20,RRIRMRPPRLPRPRPRPMQAPRP,3.02
21,RRIRYRPPRLPRPRPRPNKHPRP,-0.916
22,RRIRERPPRLPRPRPRPLWRPRP,0.0888
23,RRIRQRPPRLPRPRPRPAKGPRP,0.01
24,RRIRGRPPRLPRPRPRPHVLPRP,-0.00476
25,RRIRYRPPRLPRPRPRPYITPRP,-0.529
